Assay results published in article PMC9692666, “The Inhibitory Effects and Cytotoxic Activities of the Stem Extract of Sarracenia purpurea against Melanoma Cells and the SsbA Protein” (Plants, 2022).
Read-outs that look alike come from different tables or passages of the source.

Columns and labels:
[1] = target: T1, SaSsbA (Staphylococcus aureus) (UniProt A0A0D1JHQ1); test: EMSA; details: EMSA: 40 mM Tris-HCl pH 7.5, 50 mM NaCl, 37 C, 60 min, 30 fmol/uL DNA (30 nM); 8% native PAGE in TBE
T1 sequence: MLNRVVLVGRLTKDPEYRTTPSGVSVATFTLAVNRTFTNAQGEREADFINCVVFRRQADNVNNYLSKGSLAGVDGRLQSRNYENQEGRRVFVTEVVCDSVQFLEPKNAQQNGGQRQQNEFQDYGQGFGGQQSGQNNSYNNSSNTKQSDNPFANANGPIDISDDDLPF

[2] = target: T2, SaSsbA (Staphylococcus aureus, UniProt A0A0D1JHQ1); test: EMSA inhibition of ssDNA binding
T2 construct: gene ssb; tetramer in crystal
T2 sequence (A0A0D1JHQ1 1-167): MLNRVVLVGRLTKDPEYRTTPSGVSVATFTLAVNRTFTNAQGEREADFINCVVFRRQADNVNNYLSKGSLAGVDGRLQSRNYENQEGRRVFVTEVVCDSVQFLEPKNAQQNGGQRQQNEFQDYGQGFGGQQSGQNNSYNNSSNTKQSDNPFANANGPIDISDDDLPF

[3] = target: T3, SaSsbA (Staphylococcus aureus, UniProt A0A0D1JHQ1 1-167); test: EMSA; EMSA: 40 mM Tris-HCl pH 7.5, 50 mM NaCl, 37 C, 60 min, 30 fmol/uL DNA (30 nM); 8% native PAGE in TBE; details: protein: recombinant; chain copies: 4; label: 5' biotin; single strand
[4] = target: T3, SaSsbA; test: EMSA; no shift up to 10 uM protein; EMSA: 40 mM Tris-HCl pH 7.5, 50 mM NaCl, 37 C, 60 min, 30 fmol/uL DNA (30 nM); 8% native PAGE in TBE; details: protein: recombinant; chain copies: 4; label: biotin on PS4 (strand 1); blunt

## CCCGAATTCGGATAGCTCGGTACCCTTTTTTTTTTTTTTTTTTTTTTTTT / GGGTACCGAGCTATCCGAATTCGGG [PS4/PS3-3'-dT25]
[1]
  K half: 940 nM

## O=C1c2c(O)cc(O)cc2O[C@H](c2ccc(O)c(O)c2)[C@H]1O [dihydroquercetin]
[2]; read-out: no inhibition at 1000 μM
  IC50: > 1000 µM

## O=c1c(O)c(-c2cc(O)c(O)c(O)c2)oc2cc(O)cc(O)c12 [myricetin]
[2]; read-out: no inhibition at 300 μM
  IC50: > 300 µM

## O=C1c2c(O)cc(O)cc2O[C@H](c2ccc(O)cc2)[C@H]1O [dihydrokaempferol]
[2]; read-out: IC50
  IC50: 750 ± 62 µM

B1: dT59 (ssDNA)
DNA: TTTTTTTTTTTTTTTTTTTTTTTTTTTTTTTTTTTTTTTTTTTTTTTTTTTTTTTTTTT
[3]
  apparent K (half saturation): 240 ± 10 nM

## TTTTTTTTTTTTTTTTTTTT (ssDNA) [dT20]
[3]
  apparent K (half saturation): 1770 ± 110 nM

## TTTTTTTTTTTTTTTTTTTTTTTTTTTTTTTTTTT (ssDNA) [dT35]
[3]
  apparent K (half saturation): 360 ± 20 nM

## TTTTTTTTTTTTTTTTTTTTTTTTTTTTTT (ssDNA) [dT30]
[3]
  apparent K (half saturation): 460 ± 30 nM

B2: PS4/PS3 (dsDNA)
DNA 1: GGGTACCGAGCTATCCGAATTCGGG
DNA 2: CCCGAATTCGGATAGCTCGGTACCC
[4]
  binding result: no binding
